Reference: US20210238298A1 (ALLIGATOR BIOSCIENCE, published 2021)

Legend:
CTLA-4 (BMS, Orencia) = CTLA-4 (BMS, Orencia) (human, UniProt P16410 38-152); test: cell-based or functional assay
CD40 (Ancell) [1] = biological target: T1, CD40 (Ancell) (UniProt P25942 21-193); test: ELISA, coated CD40-Fc
T1 construct: also called CD40-Fc (Ancell #504-820); not shown: Fc part, not described
Method: (§1) ELISA plates (Greiner #655074) were coated with 50 μl/well of recombinant human OX40 (R&D #1493-CD), CD40-Fc (Ancell #504-820) or CD137 (R&D #838-4B) diluted to a final concentration of 0.5 μg/ml in PBS for 1 h at 37° C. or overnight at 4° C. Plates were washed with PBS+0.05% TWEEN20 (PBST), followed by block with PBST+1% bovine serum albumin (BSA). Antibody samples were prepared as serial 1/10 dilutions from 10-0.01 μg/ml in PBST+1% BSA and incubated for 1h in room temperature, followed by detection using a horse radish peroxidase-conjugated anti-human kappa light chain antibody (AbD Serotec #STAR127P) and developed using SuperSignal ELISA Pico Chemiluminescent substrate (Pierce ThermoScientific #37069).

[2] = biological target: CD137 on primary human CD8+ T cells (human, UniProt Q07011 24-255); test: cell-based or functional assay
[3] = biological target: T2, CD137 chimera 1554 (1411): human CD137 with mouse domains 3B, 4A and 4B (aa 97-159), on FreeStyle 293-F cells (human; mouse, UniProt P20334 96-159); test: flow cytometry, 293-F transfectants
T2 construct: domain: 3B, 4A and 4B

[4] = biological target: T3, CD137 chimera 1555 (1412): human CD137 with mouse domains 1 and 4B and region of unknown function (aa 24-46 … (human; mouse, UniProt P20334 24-45; P20334 139-185); test: flow cytometry, 293-F transfectants
T3 construct: domain: 1;domain: 4B and region of unknown function

[5] = biological target: T4, Human OX40 (R&D systems, #3358_OX) (human, UniProt P43489 29-216); test: ELISA, coated recombinant human OX40
T4 construct: Bought; Several catalogue numbers are given for it; also called human OX40 (R&D Systems, 3388-OX); OX40-Fc (R&D systems, #3358_OX); not shown: Fc part
T4 sequence: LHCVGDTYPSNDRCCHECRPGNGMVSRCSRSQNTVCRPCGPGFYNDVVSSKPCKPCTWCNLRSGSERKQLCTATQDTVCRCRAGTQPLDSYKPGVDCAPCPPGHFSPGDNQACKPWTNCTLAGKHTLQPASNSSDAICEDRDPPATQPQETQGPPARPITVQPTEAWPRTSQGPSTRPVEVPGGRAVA
Method: as §1

murine OX40 = biological target: T5, murine OX40 (murine, UniProt P47741 20-211, limits assumed); test: ELISA
T5 sequence (looked up): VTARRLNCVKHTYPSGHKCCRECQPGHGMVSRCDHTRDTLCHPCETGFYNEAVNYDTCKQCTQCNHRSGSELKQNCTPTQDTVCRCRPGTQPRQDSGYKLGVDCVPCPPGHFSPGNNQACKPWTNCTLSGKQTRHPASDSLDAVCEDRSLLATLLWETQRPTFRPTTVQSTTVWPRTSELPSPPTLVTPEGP

CD40 (Ancell) [6] = biological target: T1, CD40 (Ancell); test: ELISA
[7] = biological target: T6, recombinant human CD137-Fc (R&D #838-4B) (human, UniProt Q07011 24-186); test: ELISA
T6 construct: Bought; also called Human CD137 (R&D systems); CD137 (R&D Systems); not shown: Fc part, not described

[8] = biological target: T7, OX40 chimera 1548: human OX40 with mouse module 3 and domains 4A and 4B (aa 108-167), on FreeStyle 293-F cells (human; mouse, UniProt P47741 104-165); test: flow cytometry, 293-F transfectants
T7 construct: domain: module 3, 4A and 4B; Limits derived as for 1544
T7 sequence: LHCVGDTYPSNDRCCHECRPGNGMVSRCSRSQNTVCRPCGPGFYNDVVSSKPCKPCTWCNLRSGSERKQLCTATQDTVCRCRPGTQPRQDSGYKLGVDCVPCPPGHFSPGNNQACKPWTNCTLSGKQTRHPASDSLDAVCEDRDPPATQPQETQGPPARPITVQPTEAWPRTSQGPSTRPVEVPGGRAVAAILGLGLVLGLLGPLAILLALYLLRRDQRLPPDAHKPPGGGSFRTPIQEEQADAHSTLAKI
Method: (§2) The mouse/human chimeras were transiently transfected into FreeStyle 293-F cells (Invitrogen), incubated 48 hours in FreeStyle 293 expression medium (Invitrogen) 37 C, 8% CO₂, 135 rpm. The transfected cells were incubated with human OX40 antibodies, human OX40L (hOX40L, RnD Systems), mouse OX40L (mOX40L, RnD Systems) and controls for 30 min 4° C. and then detected with a-huIgG-PE (Jackson Immunoresearch) 30 min 4° C. Cells were analyzed with FACS Verse (BD Biosciences). Binding to the different chimeric constructs were calculated as relative (mean fluorescence intensity) MFI compared to the binding of the isotype control.

[9] = biological target: T8, OX40 chimera 1549: human OX40 with mouse domains 1A and 4B and non-annotated extracellular region (aa 30-65 … (human; mouse, UniProt P47741 26-61; P47741 125-211); test: flow cytometry, 293-F transfectants
T8 construct: domain: 1A;domain: 4B and non-annotated extracellular region; Limits derived as for 1544
T8 sequence: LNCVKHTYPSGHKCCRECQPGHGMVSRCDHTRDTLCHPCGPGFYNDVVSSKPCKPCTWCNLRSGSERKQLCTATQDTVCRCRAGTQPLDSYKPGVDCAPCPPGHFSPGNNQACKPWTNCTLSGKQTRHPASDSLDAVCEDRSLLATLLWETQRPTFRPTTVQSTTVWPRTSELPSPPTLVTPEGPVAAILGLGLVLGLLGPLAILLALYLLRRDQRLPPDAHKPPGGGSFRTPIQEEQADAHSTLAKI
Method: as §2

[10] = biological target: extracellular part of OX40 from Macaca mulatta fused to the transmembrane and intracellular part of hCD40, on … (Macaca mulatta; human, UniProt A0A5F7ZKD5 21-541; P25942 194-277); test: flow cytometry, macOX40-HEK cells; 95% confidence interval
Method: For the assay, the transfected cells were incubated with the test antibodies and controls for 30 min at 4° C. and then detected with a-huIgG-PE (Jackson Immunoresearch) 30 min 4° C. Cells were analyzed by flow cytometry with FACS Verse (BD Biosciences).

T1 sequence (P25942 21-193 limits assumed): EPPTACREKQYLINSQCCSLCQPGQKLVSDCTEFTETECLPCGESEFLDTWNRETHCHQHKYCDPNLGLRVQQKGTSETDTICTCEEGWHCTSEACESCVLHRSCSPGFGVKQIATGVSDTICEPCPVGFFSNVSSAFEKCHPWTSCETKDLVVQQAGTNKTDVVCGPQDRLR
CD137 on primary human CD8+ T cells, sequence (Q07011 24-255 limits assumed): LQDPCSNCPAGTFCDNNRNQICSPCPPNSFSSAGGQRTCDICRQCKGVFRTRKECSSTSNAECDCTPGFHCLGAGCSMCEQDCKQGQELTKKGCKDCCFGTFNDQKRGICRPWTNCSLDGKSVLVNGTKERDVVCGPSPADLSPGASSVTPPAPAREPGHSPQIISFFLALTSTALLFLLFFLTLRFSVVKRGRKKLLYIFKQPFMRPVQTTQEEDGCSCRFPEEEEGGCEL
T6 sequence (Q07011 24-186 limits assumed): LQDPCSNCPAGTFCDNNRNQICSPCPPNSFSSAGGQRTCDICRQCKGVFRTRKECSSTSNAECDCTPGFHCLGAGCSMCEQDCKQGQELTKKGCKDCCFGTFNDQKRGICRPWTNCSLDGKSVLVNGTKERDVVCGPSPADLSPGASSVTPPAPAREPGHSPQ
extracellular part of OX40 from Macaca mulatta fused to the transmembrane and intracellular part of hCD40, on …, sequence (P25942 other isoform, or with tags, fused parts or gaps): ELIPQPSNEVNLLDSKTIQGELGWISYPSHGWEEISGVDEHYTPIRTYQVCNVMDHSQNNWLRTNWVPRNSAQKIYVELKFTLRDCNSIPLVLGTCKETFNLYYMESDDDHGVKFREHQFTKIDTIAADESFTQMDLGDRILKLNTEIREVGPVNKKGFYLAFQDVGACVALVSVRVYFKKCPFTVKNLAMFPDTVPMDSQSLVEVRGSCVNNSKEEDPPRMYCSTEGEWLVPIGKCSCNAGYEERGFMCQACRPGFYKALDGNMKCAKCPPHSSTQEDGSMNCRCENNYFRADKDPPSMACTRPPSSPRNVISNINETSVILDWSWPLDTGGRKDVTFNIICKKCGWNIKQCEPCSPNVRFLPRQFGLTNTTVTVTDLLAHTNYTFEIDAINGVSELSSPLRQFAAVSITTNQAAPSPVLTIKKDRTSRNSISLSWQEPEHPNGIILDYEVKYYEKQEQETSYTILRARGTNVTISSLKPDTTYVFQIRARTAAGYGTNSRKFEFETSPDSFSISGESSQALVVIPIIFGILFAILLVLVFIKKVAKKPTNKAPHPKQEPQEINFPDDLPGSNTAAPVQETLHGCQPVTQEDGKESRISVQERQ
T3 sequence (P20334 other isoform, or with tags, fused parts or gaps mutant limits assumed): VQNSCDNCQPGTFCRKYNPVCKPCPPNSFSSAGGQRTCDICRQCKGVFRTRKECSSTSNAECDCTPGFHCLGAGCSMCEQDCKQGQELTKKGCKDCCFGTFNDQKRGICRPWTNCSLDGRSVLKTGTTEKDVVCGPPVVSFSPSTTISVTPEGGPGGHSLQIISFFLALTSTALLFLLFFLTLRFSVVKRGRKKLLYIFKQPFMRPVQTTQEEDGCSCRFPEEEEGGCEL
CTLA-4 (BMS, Orencia), sequence (P16410 38-152 limits assumed): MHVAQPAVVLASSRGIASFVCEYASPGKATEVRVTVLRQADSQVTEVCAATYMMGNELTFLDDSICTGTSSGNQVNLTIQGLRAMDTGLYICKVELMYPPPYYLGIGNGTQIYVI
T2 sequence (P20334 other isoform, or with tags, fused parts or gaps mutant limits assumed): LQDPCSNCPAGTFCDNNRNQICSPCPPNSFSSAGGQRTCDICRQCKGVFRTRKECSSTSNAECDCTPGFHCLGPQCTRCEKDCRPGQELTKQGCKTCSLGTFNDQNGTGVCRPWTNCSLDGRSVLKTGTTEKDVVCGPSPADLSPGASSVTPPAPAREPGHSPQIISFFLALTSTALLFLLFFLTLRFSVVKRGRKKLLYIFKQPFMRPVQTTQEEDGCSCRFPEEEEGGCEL

B1: bispecific molecule 1526/1585 (OX40 x CTLA-4) (bispecific antibody, human IgG1, kappa)
heavy: not shown
light: DIQMTQSPSSLSASVGDRVTITCRASQSISSYLNWYQQKPGKAPKLLIYAASSLQSGVPSRFSGSGSGTDFTLTISSLQPEDFATYYCQQYGSDSLLTFGQGTKLEIKRTVAAPSVFIFPPSDEQLKSGTASVVCLLNNFYPREAKVQWKVDNALQSGNSQESVTEQDSKDSTYSLSSTLTLSKADYEKHKVYACEVTHQGLSSPVTKSFNRGECSGGGGSGGGGSAPLKIQAYFNETADLPCQFANSQNLSLSELVVFWQDQENLVLNEVYLGKERFDSVDSKYMGRTSFDSDSWTLRLHNLQIKDKGRYQCIIHHKKPTGMINIHQMNSELSVLA
In the case of B1, the “Mean IL-2 level (pg/ml) induced at 1.5 nM” value (CTLA-4 (BMS, Orencia)) is reported as 3200 pg/mL.

B2: anti-CD137 antibody 1204/1205 (antibody, IgG1, V domains shown)
VH: EVQLLESGGGLVQPGGSLRLSCAASGFTFSSYYMGWVRQAPGKGLEWVSGIGSYYGYTGYADSVKGRFTISRDNSKNTLYLQMNSLRAEDTAVYYCARAYYDYNYYYAYFDYWGQGTLVTVSS
VL: DIQMTQSPSSLSASVGDRVTITCRASQSISSYLNWYQQKPGKAPKLLIYAASSLQSGVPSRFSGSGSGTDFTLTISSLQPEDFATYYCQQSVPHYPFTFGQGTKLEIK
notes: Produced as IgG; also called 1204-bio
In the case of B2, the binding result (CD40 (Ancell) [1]) is reported as “no binding (tested: 10 µg/ml)”, the “Max IFN-γ” value [2] is reported as 153000 pg/mL and the “Mean IFN-γ” value [2] is reported as 64400 pg/mL. The “Min IFN-γ” value [2] was 13100 pg/mL, the “relative binding (MFI sample/isotype control, normalised to full-length human CD137)” value [3] was 0.73 and the “relative binding (MFI sample/isotype control, normalised to full-length human CD137)” value [4] was 0.28. B2: no binding (tested: 10 µg/ml) [5].

B3: anti-CD137 antibody 1214/1215 (antibody, IgG1, V domains shown)
VH: EVQLLESGGGLVQPGGSLRLSCAASGFTFSSYAMSWVRQAPGKGLEWVSSIGSGGGYTGYADSVKGRFTISRDNSKNTLYLQMNSLRAEDTAVYYCARVGHPFDYWGQGTLVTVSS
VL: DIQMTQSPSSLSASVGDRVTITCRASQSISSYLNWYQQKPGKAPKLLIYAASSLQSGVPSRFSGSGSGTDFTLTISSLQPEDFATYYCQQDAYPHTFGQGTKLEIK
notes: Produced as IgG; also called 1214-bio
For B3, the binding result (CD40 (Ancell) [1]) was “no binding (tested: 10 µg/ml)”, the “Max IFN-γ” value [2] was 122000 pg/mL and the “Mean IFN-γ” value [2] was 51800 pg/mL. The “Min IFN-γ” value [2] was 8210 pg/mL and the binding result [5] was “no binding (tested: 10 µg/ml)”.

B4: anti-CD137 antibody 1620/1621 (antibody, IgG1, V domains shown)
VH: EVQLLESGGGLVQPGGSLRLSCAASGFTFSGYYMYWVRQAPGKGLEWVSGISSSGSYTYYADSVKGRFTISRDNSKNTLYLQMNSLRAEDTAVYYCARSVGPYFDYWGQGTLVTVSS
VL: DIQMTQSPSSLSASVGDRVTITCRASQSISSYLNWYQQKPGKAPKLLIYAASSLQSGVPSRFSGSGSGTDFTLTISSLQPEDFATYYCQQGVGPYTFGQGTKLEIK
notes: Produced as IgG
B4 was tested, and the binding result (CD40 (Ancell) [1]) was “no binding (tested: 10 µg/ml)”, the “Max IFN-γ” value [2] was 123000 pg/mL and the “Mean IFN-γ” value [2] was 52400 pg/mL. The “Min IFN-γ” value [2] was 7730 pg/mL and the binding result [5] was “no binding (tested: 10 µg/ml)”.

B5: anti-CD137 antibody 1626/1627 (antibody, IgG1, V domains shown)
VH: EVQLLESGGGLVQPGGSLRLSCAASGFTFGGYSMYWVRQAPGKGLEWVSSIGGYYYSTYYADSVKGRFTISRDNSKNTLYLQMNSLRAEDTAVYYCARSYYGSIDYWGQGTLVTVSS
VL: DIQMTQSPSSLSASVGDRVTITCRASQSISSYLNWYQQKPGKAPKLLIYAASSLQSGVPSRFSGSGSGTDFTLTISSLQPEDFATYYCQQGTGYGPLTFGQGTKLEIK
notes: Produced as IgG; also called 1626-bio
With B5 the binding result (CD40 (Ancell) [1]) was “no binding (tested: 10 µg/ml)”, the “Max IFN-γ” value [2] was 32200 pg/mL and the “Mean IFN-γ” value [2] was 15100 pg/mL. The “Min IFN-γ” value [2] was 4160 pg/mL and the binding result [5] was “no binding (tested: 10 µg/ml)”.

B6: anti-OX40 antibody 1166/1167 (antibody, V domains shown)
VH: EVQLLESGGGLVQPGGSLRLSCAASGFTFGGYYMSWVRQAPGKGLEWVSAISGSGGSTYYADSVKGRFTISRDNSKNTLYLQMNSLRAEDTAVYYCARYDYASMDYWGQGTLVTVSS
VL: DIQMTQSPSSLSASVGDRVTITCRASQSISSYLNWYQQKPGKAPKLLIYAASSLQSGVPSRFSGSGSGTDFTLTISSLQPEDFATYYCQQYYWYGLSTFGQGTKLEIK
notes: Tested as IgG
B6: no binding (murine OX40); no binding (CD40 (Ancell) [6]); no binding [7]. The “relative MFI vs isotype control” value [8] was 15.8, the “relative MFI vs isotype control” value [9] was 11.3 and the EC50 [10] was 0.16 to 0.242 µg/mL.

B7: anti-OX40 antibody 1170/1171 (antibody, V domains shown)
VH: EVQLLESGGGLVQPGGSLRLSCAASGFTFGGYYMSWVRQAPGKGLEWVSYIPGSGGSTYYADSVKGRFTISRDNSKNTLYLQMNSLRAEDTAVYYCARYDYYWMDYWGQGTLVTVSS
VL: DIQMTQSPSSLSASVGDRVTITCRASQSISSYLNWYQQKPGKAPKLLIYAASSLQSGVPSRFSGSGSGTDFTLTISSLQPEDFATYYCQQGHGSYPHTFGQGTKLEIK
notes: Tested as IgG
B7: no binding (murine OX40); no binding (CD40 (Ancell) [6]); no binding [7]. For the same binder, the “relative MFI vs isotype control” value [8] was 20.3 and the “relative MFI vs isotype control” value [9] was 12.1.

B8: anti-OX40 antibody 1514/1515 (antibody, V domains shown)
VH: EVQLLESGGGLVQPGGSLRLSCAASGFTFGYYYMSWVRQAPGKGLEWVSGISSYGSYTYYADSVKGRFTISRDNSKNTLYLQMNSLRAEDTAVYYCARSGYSNWANSFDYWGQGTLVTVSS
VL: DIQMTQSPSSLSASVGDRVTITCRASQSISSYLNWYQQKPGKAPKLLIYAASSLQSGVPSRFSGSGSGTDFTLTISSLQPEDFATYYCQQGDYTLFTFGQGTKLEIK
notes: Tested as IgG
B8: no binding (murine OX40); no binding (CD40 (Ancell) [6]); no binding [7]. For the same binder, the “relative MFI vs isotype control” value [8] was 17.2 and the “relative MFI vs isotype control” value [9] was 10.6.
